Source: publication PMC10953399, “Escherichia coli DNA repair helicase Lhr is also a uracil‐DNA glycosylase”

Molecular target: LhrD1536A (Escherichia coli MG1655, UniProt P30015 1-1538, D1536A)
Test: EMSA; 5 mM EDTA; 12.5-200 nM protein, 12.5 nM DNA; similar to Lhr; 20 mM Tris pH 7.5, 10% glycerol, 100 ug/mL BSA, 25 mM DTT, 5 mM EDTA, 12.5 nM Cy5-DNA; 37 C 20 min then ice 10 min; 5% acrylamide TBE gel
Conditions: protein: recombinant; tags: His6; label: 5' Cy5; single strand

B1: Cy5-ssDNA (EMSA) (ssDNA)
DNA: TCGGATCCTCTAGACAGCTCCATGATCACTGGCACTGGTAGAATTCGGC
- binding result: binds
